Laboratory results: publication PMC12057046 (2025)

B1: GST-tagged USP8 MIT domain (1-142) [human] / DBP 116-131 peptide, cellulose-bound (SPOT array) [human] (parent complex)
chain 1: MPAVASVPKELYLSSSLKDLNKKTEVKPEKISTKSYVHSALKIFKTAEECRLDRDEERAYVLYMKYVTVYNLIKKRPDFKQQQDYFHSILGPGNIKKAVEEAERLSESLKLRYEEAEVRKKLEEKDRQEEAQRLQQKRQETG
chain 2: YVDLDAFLLEHGLPPS

Variants of: B1
Test: SPOT array alanine scanning; read off a plot

Row | screen value [%] | Variant
1 | ~-5 | chain 2 YVDLDAFLLEHGLAPS [chain 2 P14A]
2 | ~-87 | chain 2 YVDLDAFLLEHALPPS [chain 2 G12A]
3 | ~-22 | chain 2 YVDLDAFLLEHGAPPS [chain 2 L13A]
